Results taken from US20140178935A1 (AVEO PHARMACEUTICALS, published 2014).

What was measured:
[1] = target: T1, recombinant human HGF (R&D Systems, Catalog No. 294-HGN-025) (human, UniProt P14210 32-728); test: SPR (BIAcore T100), antibody captured on mouse anti-human immunoglobulin CM4 chip, HGF 1.88, 3.75 and 7.5 nM injected, 25 C; three independent experiments
T1 construct: Mature HGF is a disulfide-linked heterodimer of alpha and beta chain cut from one precursor; also called rhHGF (R&D Systems); rhHGF
Protocol: Antigen-binding affinity and kinetics of interaction were assessed by surface plasmon resonance technology using a BIAcore T100 instrument. Mouse anti-human immunoglobulins (Jackson ImmunoResearch Labs, 209-005-098) were immobilized on carboxymethylated dextran CM4 sensor chips (BIAcore, Catalog No. BR-1005-34) by amine coupling (BIAcore, Catalog No. BR-1000-50) using a standard coupling protocol according to manufacturer's recommendations. The analyses were performed at 25° C. using PBS (GIBCO, Catalog No. 14040-133) containing 0.05% surfactant P20 (BIAcore, Catalog No. BR-1000-54), 2 mg/mL BSA (EMD, Catalog No. 2930) and 10 mg/mL CM-Dextran Sodium salt (Fluka, Catalog No. 86524) as running buffer.
The antibodies were captured on individual flow cell at a flow rate of 10 μL/min. Injection time was variable for each antibody to yield approximately 20 RU of antibody captured for each cycle. […] The dissociation phase was monitored for 15 or 90 minutes, depending on concentration. The surface then was regenerated with 10 mM Glycine-HCl, pH 2.0 (BIAcore, Catalog No. BR-1003-55) injected for 3 minutes at a flow rate of 60 μL/min before another cycle was initiated. […] Determination of kinetic parameters was achieved using the kinetic function of the BIAevalutation software with reference subtraction.

[2] = target: T1, recombinant human HGF (R&D Systems, …); test: SPR, captured antibody, HGF injected, 25 C
Protocol: Mouse anti-human immunoglobulins (Jackson Labs, Catalog No. 209-005) or rabbit anti-mouse immunoglobulins (BIAcore, Catalog No. BR-1005-14) were immobilized on carboxymethylated dextran CM4 sensor chips (BIAcore, Catalog No. BR-1006-68) by amine coupling (BIAcore, Catalog No. BR-1000-50) using a standard coupling protocol according to manufacturer's instructions. […] The analyses were performed at 25° C. and 37° C. using PBS (GIBCO, Catalog No. 14040-133) containing 0.05% surfactant P20 (BIAcore, Catalog No. BR-1000-54), and 2 mg/mL BSA (EMD, Catalog No. 2930) as running buffer.
The antibodies were captured in an individual flow cell at a flow rate of […]. Injection time was variable for each antibody to yield approximately 20 RU of antibody captured for each cycle. […] The dissociation phase was monitored for 15 or 90 minutes, depending on concentration. The surface of mouse anti-human immunoglobulins sensor chips was then regenerated with 10 mM Glycine-HCl, pH 2.2 (BIAcore, Catalog No. BR-1003-54) injected for 3 minutes at a flow rate of 60 μL/min before another cycle was initiated. The surface of rabbit anti-mouse immunoglobulins sensor chips was regenerated with 10 mM Glycine-HCl, pH 1.7 (BIAcore, Catalog No. BR-1003-54) injected for 3 minutes at a flow rate of 60 μL/min before another cycle was initiated.
Kinetic parameters were determined using the kinetic function of the BIAevaluation software with reference subtraction.

[3] = target: T1, recombinant human HGF (R&D Systems, …); test: SPR, captured antibody, HGF injected, 25 C; remark: listed apart in the source
Protocol: Mouse anti-human immunoglobulins (Jackson Labs, Catalog No. 209-005) were immobilized on carboxymethylated dextran CM4 sensor chips (BIAcore, Catalog No. BR-1006-68) by amine coupling (BIAcore, Catalog No. BR-1000-50) using a standard coupling protocol according to manufacturer's instructions. The analyses were performed at 25° C. using PBS (GIBCO, Catalog No. 14040-133) containing 0.05% surfactant P20 (BIAcore, Catalog No. BR-1000-54), and 2 mg/mL BSA (EMD, Catalog No. 2930).
The antibodies were captured in an individual flow cell at a flow rate of 10 μL/min. Injection time was variable for each antibody to yield approximately 20 RU of antibody captured for each cycle. […] The dissociation phase was monitored for 15 or 90 minutes, depending on concentration. The surface then was regenerated with 10 mM Glycine-HCl, pH 2.2 (BIAcore, Catalog No. BR-1003-54) injected for 3 minutes at a flow rate of 60 μL/min before another cycle was initiated.
Kinetic parameters were determined using the kinetic function of the BIAevalutation™ software with reference subtraction.

T1 sequence (P14210 32-728 limits assumed): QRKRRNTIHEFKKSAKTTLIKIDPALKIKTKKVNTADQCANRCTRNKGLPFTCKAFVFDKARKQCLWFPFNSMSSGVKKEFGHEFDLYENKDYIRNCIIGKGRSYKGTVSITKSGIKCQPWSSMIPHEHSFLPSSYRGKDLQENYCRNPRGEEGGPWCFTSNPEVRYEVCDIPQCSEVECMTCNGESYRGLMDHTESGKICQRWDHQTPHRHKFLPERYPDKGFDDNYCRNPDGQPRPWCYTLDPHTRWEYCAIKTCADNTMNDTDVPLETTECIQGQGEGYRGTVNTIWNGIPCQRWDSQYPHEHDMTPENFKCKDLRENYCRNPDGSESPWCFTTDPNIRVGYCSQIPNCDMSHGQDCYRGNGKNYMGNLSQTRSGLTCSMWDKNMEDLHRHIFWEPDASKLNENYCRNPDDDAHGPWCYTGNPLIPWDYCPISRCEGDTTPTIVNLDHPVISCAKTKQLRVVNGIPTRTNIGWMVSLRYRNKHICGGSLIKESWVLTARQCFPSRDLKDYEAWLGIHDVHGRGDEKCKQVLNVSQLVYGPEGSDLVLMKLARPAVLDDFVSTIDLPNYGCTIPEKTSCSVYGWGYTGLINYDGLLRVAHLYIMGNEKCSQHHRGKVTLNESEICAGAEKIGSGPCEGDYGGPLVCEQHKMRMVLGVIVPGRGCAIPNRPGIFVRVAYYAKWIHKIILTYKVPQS

Kd [1]: 8.1 pM
koff [1]: 1.7e-05 s⁻¹
kon [1]: 2e+06 M⁻¹ s⁻¹
Kd [2]: 8.1 pM
koff [2]: 1.7e-05 s⁻¹
kon [2]: 2e+06 M⁻¹ s⁻¹
Kd [3]: 8.1 pM
koff [3]: 1.7e-05 s⁻¹
kon [3]: 2e+06 M⁻¹ s⁻¹
B1: sh2B8-9 (G1m(17,1)) = hu2B8 Hv5-51.1 + IgG1 constant region (G1m(17,1) allotype) plus hu2B8 Kv1-39.1 + Kappa constant region (Km(3) allotype, allele 2) (antibody)
heavy: not shown
light: DIQMTQSPSSLSASVGDRVTITCKASENVVSYVSWYQQKPGKAPKLLIYGASNRNTGVPSRFSGSGSGTDFTLTISSLQPEDFATYYCGQSYNYPYTFGQGTKLEIKRTVAAPSVFIFPPSDEQLKSGTASVVCLLNNFYPREAKVQWKVDNALQSGNSQESVTEQDSKDSTYSLSSTLTLSKADYEKHKVYACEVTHQGLSSPVTKSFNRGEC
